From paper PMC6277545, “Structural Basis for the Limited Response to Oxidative and Thiol-Conjugating Agents by Triosephosphate Isomerase From the Photosynthetic Bacteria Synechocystis” (Frontiers in Molecular Biosciences, 2018) come the findings set out here.

Positions count from the first letter of the chain named. Numbers in names are those of the source.

B1: SyTPI (Synechocystis sp. PCC 6803 substr. Kazusa; C127A/C176S/C42A) (protein)
chain: MRKIIIAGNWKMHKTQAEAQAFLQGFKPLIEDAAESREVVLAVPFTDLSGMSQQLHGGRVRLGAQNVHWEASGAYTGEISAAMLTEIGIHYVVIGHSERRQYFGETDETANLRVLAAQKAGLIPILAVGESKAQRDAGETEQVIVDQVKKGLVNVDQSNLVIAYEPIWAIGTGDTSAATEANRVIGLIREQLTNSQVTIQYGGSVNANNVDEIMAQPEIDGALVGGASLEPQSFARIVNFQP
notes: full length, codon-optimised, E. coli BL21(DE3) delta-tpi; His tag cut by PreScission, extra Gly-Pro-His before Met1; homodimer 54 kDa
B2: SyTPI (Synechocystis sp. PCC 6803 substr. Kazusa; C127A) (protein)
chain: B1 chain with A42C, S176C
notes: as for B1
B3: SyTPI (Synechocystis sp. PCC 6803 substr. Kazusa; C42A) (protein)
chain: B1 chain with A127C, S176C
notes: as for B1
B4: SyTPI (Synechocystis sp. PCC 6803 substr. Kazusa; C127A/C176S) (protein)
chain: B1 chain with A42C
notes: as for B1
B5: SyTPI (Synechocystis sp. PCC 6803 substr. Kazusa; C127A/C42A) (protein)
chain: B1 chain with S176C
notes: as for B1
B6: SyTPI (Synechocystis sp. PCC 6803 substr. Kazusa; C176S/C42A) (protein)
chain: B1 chain with A127C
notes: as for B1
B7: SyTPI (Synechocystis sp. PCC 6803 substr. Kazusa) (protein)
chain: B1 chain with A42C, A127C, S176C
notes: as for B1

Substrate in this data set: O=CC(O)COP(=O)(O)O
Briefly: coupled alpha-glycerophosphate dehydrogenase assay, A340. The class given is biochemical, Synechocystis sp. PCC 6803. The conditions noted are these: 0.1 M TEA pH 7.4, 10 mM EDTA, 0.2 mM NADH, G3P 0-5 mM, G3P to DHAP. An excerpt: coupled alpha-glycerophosphate dehydrogenase assay, A340 on SyTPI
Regarding B1, the Michaelis-Menten constant (Km) – broadly, the concentration of substrate that gives half-maximal velocity – was found to be 1400 ± 150 µM; the catalytic constant (kcat) (usually the maximal rate divided by the concentration of active sites) is 21.3 ± 1 s⁻¹; the specificity constant (kcat/Km) (as a rule, the turnover number divided by the Michaelis constant) was found to be 15200 M⁻¹ s⁻¹.

As to B2, the Km worked out at 1040 ± 80 µM, the kcat was 1770 ± 56 s⁻¹ and the kcat/Km is 1.71e+06 M⁻¹ s⁻¹.

As for B3, the Km is 1010 ± 30 µM, the kcat came to 1780 ± 42 s⁻¹ and the kcat/Km was 1.76e+06 M⁻¹ s⁻¹.

Consider B4, for which the Km was 1190 ± 80 µM, the kcat turned out to be 683 ± 6 s⁻¹ and the catalytic efficiency (kcat/Km) worked out at 573000 M⁻¹ s⁻¹.

Consider B5, for which the Km was found to be 1100 ± 30 µM, the kcat amounted to 1630 ± 53 s⁻¹ and the kcat/Km is 1.48e+06 M⁻¹ s⁻¹.

As to B6, the Km was found to be 1460 ± 20 µM, the kcat worked out at 2130 ± 62 s⁻¹ and the specificity constant (kcat/Km) was 1.46e+06 M⁻¹ s⁻¹.

Regarding B7, the Km worked out at 800 ± 20 µM, the kcat stood at 1850 ± 43 s⁻¹ and the kcat/Km came to 2.31e+06 M⁻¹ s⁻¹.
